# B1: Protein BTG4 (Mus musculus), O70552 (parent)
# chain: MRDEIATAVFFVTRLVKKHEKLSTQQIETFALKLMTILFEKYRGHWHPDCPSKGQAFRCIRINNNENKDPVLERACAESNVNFFHLGLPKEMTIWVDPYEVCCRYGEKKHPFTIASFKGRWENWELAQHVSCAVNRATGDCSSGTSSDEESCSREAQIIPKVNNPKSVYQVENFKQSLQPWFCLPRRKHLADGRGFLPGAACHPVPKSSKWCRPASRRVDRYHWVNAQLFSGQTAPGEPGEEALSSLKQK
# Variants of: B1
# Conditions: with cnot7_mouse Cnot7, Q60809
# cnot7_mouse Cnot7, Q60809, sequence (Q60809 whole entry): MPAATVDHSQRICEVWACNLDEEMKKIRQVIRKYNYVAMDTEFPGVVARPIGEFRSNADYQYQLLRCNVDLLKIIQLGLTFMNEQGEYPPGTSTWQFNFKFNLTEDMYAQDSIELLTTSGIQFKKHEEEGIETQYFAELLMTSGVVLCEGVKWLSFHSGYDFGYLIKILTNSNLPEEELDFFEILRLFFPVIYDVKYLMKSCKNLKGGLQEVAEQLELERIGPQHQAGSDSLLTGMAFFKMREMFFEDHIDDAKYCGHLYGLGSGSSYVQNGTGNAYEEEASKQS
row,Variant,effect of a mutation on the interaction
1,MRDEIATAVFFVTRLVKKHEKLSTQQIETFALKLMTILFEKYRGAWHPDCPSKGQAFRCIRINNNENKDPVLERACAESNVNFFHLGLPKEMTIWVDPYEVCCRYGEKKHPFTIASFKGRWENWELAQHVSCAVNRATGDCSSGTSSDEESCSREAQIIPKVNNPKSVYQVENFKQSLQPWFCLPRRKHLADGRGFLPGAACHPVPKSSKWCRPASRRVDRYHWVNAQLFSGQTAPGEPGEEALSSLKQK [H45A],disrupting interaction strength
2,MRDEIATAVFFVTRLVKKHEKLSTQQIETFALKLMTILFEKYRGHAHPDCPSKGQAFRCIRINNNENKDPVLERACAESNVNFFHLGLPKEMTIWVDPYEVCCRYGEKKHPFTIASFKGRWENWELAQHVSCAVNRATGDCSSGTSSDEESCSREAQIIPKVNNPKSVYQVENFKQSLQPWFCLPRRKHLADGRGFLPGAACHPVPKSSKWCRPASRRVDRYHWVNAQLFSGQTAPGEPGEEALSSLKQK [W46A],disrupting interaction strength
3,MRDEIATAVFFVTRLVKKHEKLSTQQIETFALKLMTILFEKYRGHWHPDCPSKGQAFRCIRINNNENKDPVLERACAESNVNFFHLGLPKEMTIWVDPYEVCCRYGAKKHPFTIASFKGRWENWELAQHVSCAVNRATGDCSSGTSSDEESCSREAQIIPKVNNPKSVYQVENFKQSLQPWFCLPRRKHLADGRGFLPGAACHPVPKSSKWCRPASRRVDRYHWVNAQLFSGQTAPGEPGEEALSSLKQK [E107A],disrupting interaction strength
4,MRDEIATAVFFVTRLVKKHEKLSTQQIETFALKLMTILFEKYRGHWHPDCPSKGQAFRCIRINNNENKDPVLERACAESNVNFFHLGLPKEMTIAVDPYEVCCRYGEKKHPFTIASFKGRWENWELAQHVSCAVNRATGDCSSGTSSDEESCSREAQIIPKVNNPKSVYQVENFKQSLQPWFCLPRRKHLADGRGFLPGAACHPVPKSSKWCRPASRRVDRYHWVNAQLFSGQTAPGEPGEEALSSLKQK [W95A],disrupting interaction strength
5,MRDEIATAVFFVTRLVKKHEKLSTQQIETFALKLMTILFEKYRGHWHPDCPSKGQAFACIRINNNENKDPVLERACAESNVNFFHLGLPKEMTIWVDPYEVCCRYGEKKHPFTIASFKGRWENWELAQHVSCAVNRATGDCSSGTSSDEESCSREAQIIPKVNNPKSVYQVENFKQSLQPWFCLPRRKHLADGRGFLPGAACHPVPKSSKWCRPASRRVDRYHWVNAQLFSGQTAPGEPGEEALSSLKQK [R58A],disrupting interaction strength
6,MRDEIATAVFFVTRLVKKHEKLSTQQIETFALKLMTILFEKYRGHWHPDCPSKGQAFRCIRINNNENKAPVLERACAESNVNFFHLGLPKEMTIWVDPYEVCCRYGEKKHPFTIASFKGRWENWELAQHVSCAVNRATGDCSSGTSSDEESCSREAQIIPKVNNPKSVYQVENFKQSLQPWFCLPRRKHLADGRGFLPGAACHPVPKSSKWCRPASRRVDRYHWVNAQLFSGQTAPGEPGEEALSSLKQK [D69A],disrupting interaction strength
7,MRDEIATAVFFVTRLVKKHEKLSTQQIETFALKLMTILFEKYRGHWHPDCPSKGQAFRAIRINNNENKDPVLERACAESNVNFFHLGLPKEMTIWVDPYEVCCRYGEKKHPFTIASFKGRWENWELAQHVSCAVNRATGDCSSGTSSDEESCSREAQIIPKVNNPKSVYQVENFKQSLQPWFCLPRRKHLADGRGFLPGAACHPVPKSSKWCRPASRRVDRYHWVNAQLFSGQTAPGEPGEEALSSLKQK [C59A],decreasing interaction strength

# Variants of: B1
# Conditions: with cnot8_mouse Cnot8, Q9D8X5
# cnot8_mouse Cnot8, Q9D8X5, sequence (Q9D8X5 whole entry): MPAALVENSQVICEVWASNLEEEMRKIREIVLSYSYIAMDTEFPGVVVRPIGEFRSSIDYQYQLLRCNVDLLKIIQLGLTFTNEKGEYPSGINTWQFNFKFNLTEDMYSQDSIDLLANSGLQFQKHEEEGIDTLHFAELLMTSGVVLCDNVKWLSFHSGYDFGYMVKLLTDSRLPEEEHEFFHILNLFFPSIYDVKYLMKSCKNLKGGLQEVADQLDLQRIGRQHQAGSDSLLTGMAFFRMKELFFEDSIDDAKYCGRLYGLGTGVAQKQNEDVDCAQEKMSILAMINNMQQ
row,Variant,effect of a mutation on the interaction
1,MRDEIATAVFFVTRLVKKHEKLSTQQIETFALKLMTILFEKYRGHWHPDCPSKGQAFRCIRINNNENKDPVLERACAESNVNFFHLGLPKEMTIAVDPYEVCCRYGEKKHPFTIASFKGRWENWELAQHVSCAVNRATGDCSSGTSSDEESCSREAQIIPKVNNPKSVYQVENFKQSLQPWFCLPRRKHLADGRGFLPGAACHPVPKSSKWCRPASRRVDRYHWVNAQLFSGQTAPGEPGEEALSSLKQK [W95A],disrupting interaction strength
